The source of these data is paper PMC5905600, “Structural and Immunodiagnostic Characterization of Synthetic Antigen B Subunits From Echinococcus granulosus and Their Evaluation as Target Antigens for Cyst Viability Assessment” (Clinical Infectious Diseases: An Official Publication of …, 2017).

“And” between values parts separate entries of the source, which are not always exact repeats. Equal values may be shown once.

In data set [1] the target is Antigen B subunit 1 (AgB1), synthetic (Echinococcus granulosus). The data set can be described thus: cross-linking; subunits with a 10-fold or a 100-fold excess of EDC; SDS-PAGE under reducing conditions; western immunoblotting with WSH serum. Background: Immunoblotting shows a protein as a band on a membrane.
For data set [2] the target is unchanged. The data set can be described thus: cross-linking; each single subunit with a 100-fold molar excess of EDC; SDS-PAGE in reducing and nonreducing conditions; bands digested in situ, LC-MS/MS, cross-linked peptides identified with StavroX.
Data set [3] concerns the target Antigen B subunit 2 (AgB2), synthetic (Echinococcus granulosus). The data set can be described thus: SEC; single synthetic subunits; 50 mM sodium phosphate, 150 mM NaCl, pH 7.4; AKTA Explorer 10; size by calibration with standard proteins (apparent molecular weight). A general note: SEC sorts molecules by how far they enter the pores of the column.
Data set [4] concerns the molecule itself. Described as above.

One may read the stoichiometry N as the number of molecules, sites or subunits per partner or assembly. For the molecule “Antigen B subunit 1 (AgB1), synthetic (natural protein)”, the stoichiometry N was 3 and 4 and 5 in data set [1]; 2 and 3 and 4 in data set [2].
On to “Antigen B subunit 2 (AgB2), synthetic (natural protein)”, for which the stoichiometry N in data set [3] stood at 6.8 units.

B1: Antigen B subunit 4 (AgB4), synthetic (natural protein)
chain: KAEPERCKCLIMRKLGEIRDFFRSDPLGQKLAALGRDLTAICQKLQLKVHEVLKKYVKDLLEEEDEDDLK
As to B1, in data set [4], the “stoichiometry N” value amounted to 6.

B2: Antigen B subunit 3 (AgB3), synthetic (natural protein)
chain: DDDDEVTKTKKGVMKAISEIKHFFQSDPLGKKLVEVMKDVASVCEMVRKKARMALKEYVRKLVKEDE
As to B2, in data set [4], the “stoichiometry N” value was 6.6 units.
